Test: soluble on expression in E. coli; label from the status in PepcDB or PDB records

Sequence	soluble on expression in E. coli
MIDEWPVPTAAAAVIGPSGVLATHGDDAKPFALASVTKLLVARAAQVAIEEGVVELDTPAGPDGSTVRHLLAHTSGVAMNSADTVAQVGQRRVYSNFGFGLLAHAIEDAAEIEFGRYLTEAVFEPLGMSTSKLLGGADAAGFGVTSTVSDLARFAGDLLRPALVSQQMHDEATSVQFPGVNGVLPGFGSQRPNDWGLGFEIRDGKTPHWTGSSNSPRTFGHFGQSGTFLWVDPVADLALLVLTDRDFGDWTYPLWPAISDGVLREIGTHLEHHHHHH	not soluble
MVIMLATMLHSIAVGNLLPSYVKTICVDMNPSTVTKLMDRGTHQAIGVVTDVGLFLPLLYLKIKEIEAKE	not soluble
GSDPGPEAARLRFRCFHYEEATGPQEALAQLRELCRQWLRPEVRSKEQMLELLVLEQFLGALPPEIQARVQGQRPGSPEEAAALVDGLRREPGG	soluble
MNSNSLSRFTSIVRTTSIRGFHDRSSVPRVVDDREKSSAKYNDAGYTFRYHQQGVDPLPRIPDCKVPVARPAYKVRDQWSDEAARFGQNDYIDLLGDGSVHPAQLQYHTPTWLRGFPGQHKANELIKLIHYRNLYDAKLKQNSPKRWHELRKRIKYLMMQHNYNKQDEIGRERNLGLWEEEPDYTYKDKSRRSFKDEIH	not soluble
MGSDKIHHHHHHMMTDARTTAEGGMETSYGFHKVDEGKKQGLVNEVFHKVAKRYDIMNDVMSAGLHRLWKDAMVSALSPRKDPSYKILDVAGGTGDVAFRIIEASNRLAHATVLDINGSMLAVGEERAAKKKLSDNLTFVEANAEELPFEANTFDAYTVAFGIRNVPRIDVALKEAYRVLKRGGRLLVLEFSEVDMPLLDRVYDAWSFNAIPQFGKMITGDAEPYQYLVESIRKFPNQEDFATMIRTAGFSRVTYTNYTGGIAALHSGWKL	not soluble
MNKEALVQVAEEVRRATGLPVGWRDVERTLGALRATRDLWEAVRLSRVPLRFLVPIWEGLARRGLLRVEEGLDLLAEVPAPRPGEAACPACEGRGLVGERLPGRAAERFLAWAKERPEAIQDFDQGYVTPESTLARVALAWNWGDLEGKEVLVLGDDDLTGLAAALTGLPKRVVVLDADPRIVRFLERAAKAEGLPLEAHVHDLREPLPEAWVHAFHTFFTDPVEGPLGLQAFVGRGLLALEGEGCAGYVGLTHVEASLAKWADFQRFLLENGAVITELRDGFHVYENWGYIEQMRAWPWLPVKRRPEKPWYTSALIRLELLRRADLENARVEGDLQDEEATTY	soluble
GPGSMRRTFKKLGLSALRACRGAGAAGTAASAHTSGFARVPSMSAPTALTVPRRSASDAALADATRRELEEEMGRSDKPEQPTPPAGWQVVRKPGTCTFDLTKSFEGEDLVVRYSTNQDSDKANSHNIFVYITQKNGQTMQADLSIEEGELVLNNIRFYDEAALAKDTGAEAEAKRNELYTGPLVHELDYDLLNCVMTYLEKRGVDEKLGEFVVLYSFWAEQQDYEAWLTTMNKFAS	not soluble
MRNHYMSMYDMRQFFKTYFSSASEKSILVKLLDKRFHPPSHTANILDLGCHDGALMKNIVNAYAKRLPEKLVITGVDPSLQAIKEYAKADFPIPVQTNTFAGTAEDYFDVCTDHFDWIFASQCLYWSPDLPKIIKQIHETGDSALIVIRGCHGIYEIQSQFRHYIGNHLEKFYTDKEVEMALRTQKILFQKESLSTSIRLPDKDSIELKWLILFFLQMEEESLGDKIFCEVRDWITSRTSGSIHHEVHFFWLGNAILQGITI	not soluble
MVSLEKNDHLMLARQLPLKSVALILAGGRGTRLKDLTNKRAKPAVHFGGKFRIIDFALSNCINSGIRRMGVITQYQSHTLVQHIQRGWSFFNEEMNEFVDLLPAQQRMKGENWYRGTADAVTQNLDIIRRYKAEYVVILAGDHIYKQDYSRMLIDHVEKGARCTVACMPVPIEEASAFGVMAVDENDKIIEFVEKPANPPSMPNDPSKSLASMGIYVFDADYLYELLEEDDRDENSSHDFGKDLIPKITEAGLAYAHPFPLSCVQSDPDAEPYWRDVGTLEAYWKANLDLASVVPELDMYDRNWPIRTYNESLPPAKFVQDRSGSHGMTLNSLVSGGCVISGSVVVQSVLFSRVRVNSFCNIDSAVLLPEVWVGRSCRLRRCVIDRACVIPEGMVIGENAEEDARRFYRSEEGIVLVTREMLRKLGHKQER	not soluble
NSMAEFQYNLNLEEEKKQLEIENLCFENMKKQMEFTRRARHDLKHHMKAVHTMAENNECKKITEYIETYLEHVSLKKPLVYCTNFTLNALIVYYVQQAEAHKIKLKLNIELPEETNVKEADLTVLFGNLLENAIDACDEVQENKRYINLKIYKPNSDSIVFYIENGFNGSIKKKNQQFLTTKANGNGIGIESVKYVVHKYNGDVNIKTDENKFIVSGVLLQPLDATK	not soluble
MGSDKIHHHHHHVTDSDSQPVNEFPIAPPAPRKGRGAVTNLQGRYEVDQREAIDDGWLSLAEDDDEPKVLRTQVFEERAKTILTRNASPDIPFGVSLNPYRGCEHGCIYCFARPTHSYLGLSPGLDFESRIYAKVNAPELLERELSKKSYVPEPIALGVNTDAWQPAERDLQLTRRVIEVLSERHHPFAAITKSSLIERDLDLLAPMAARGQFMAAITITTLDAGIARTLEPRAATPSRRLRTIRTLSEAGIPVGVSIAPVIPFVTEPDMERVLEACAEAGASNASYIVLRLPWEVAPLFKDWLAAYFPDRAERVMGRVRDMRGGKDYDSSFSTRMKGEGLWADLLKQRFHKAVRRLGLNRRDRGILDMSHFRRIEPPRAGQPARNDSQLDLF	not soluble
MKRILLSLLAMATLVGCGSKDDNNPTPPQRPDFTKEQQNYLPTKKVKHVTATYVEADYENGSYPSVQYKDFLNPELNQGQKFTVKTMEYFYEYDNAGRITKVTFKREGDSDIVSTLTYSNISVTITSPPPYDGIREPRSIEYGLNSSGNILSLGVYNEKQQLKNSMSAGTFTWENDNLTKISRKVTRNGVVKERGVKFSYNSATNKNKFYLLDHTGDDIRSYQEYFALSIAIIKGAAPKNLPIEATPLEENDSYSSRFERPVSFSYTFDGDEFVKTITEKENKFVPGSLYSYVPNNGNNEIGTYWNELQTLIANIENKTVTNKSYKLISDDGSTRIFEITVPVKVEKDSNGKTINLNVNKVCKFTVSYNNTSATDIRMEATYYADIITNYELNY	not soluble
MSLDSPPIRVFVVEDQTKILKNQLRLFENHPEMDIIGTALSGEAALEEVPKLMPDVLLLDLGLPRMSGIDVTREVKARFPKIEILIFTIFDEEDKVLEAVKAGASGYLLKGAPVDKIIEAIKEVRAGGTVIQPNLARRLLRHFRVEPDASPLISPPAAPEPSASDLPQEPLLKPLSDREREILQLIAKGVSNSEAARLLDLSKATIRTHLEHIYRKLEVTNRVEAVTEGIRKGLISEGHHHHHH	soluble
MSLSRKRKSYSAEFKTRVVLELLGGEETVAQIASKYEITPKSLIDWKKQFLENASLVFDVGSATKAYKDEIEELKTENDALAKKLGKTTIERDWAVGKLKSLGLSNKKDLVTPKLKNLSMARQCEIIDLNRSTLYYEPKPISDNDLKIMKRIDEIYTDISSTYGYRFMHRQLLEDGFSIGVNKVNKLMNTMGIQAIFPKKKRHTSIKNYKHKIYPYLLRELEINRANQVWSGDITYIPIKGGFVYLCAIIDWHSKTILSWKISTTMDTSLVTDVLKEAIEKYDIPVIFNSDQGSQYTSHEHTELLKKHNIQISMNGKGRSIDNIAIERFFRTLKYDEIYINEYSSISDLRFKVSRYINFYNHNRFHSALNYQKPMNVYLEGLKNVAEGHHHHHH	not soluble
PQSAVLHYSGSYGIPATMTFERSGNAYKIVSTIKVPLYNIRFESGGTVVGNTLHPTYYRDIRRGKLYAEAKFADGSVTYGKAGESKTEQSPKAMDLFTLAWQLAANDAKLPPGLKITNGKKLYSVGGLNKAGTGKYSIGGVETEVVKYRVRRGDDAV	not soluble
MGSDKIHHHHHHVTLRQRIQAMSDCNRDPVSQITDLSGALVTIVPSLLACVGMVFASNLTDVTAEALLYDYREAANPLGQRLIARVPYQDWGAELHQTPETAIIPLDLSEALGCEGPATSPSLLANFVHILPNQAIETTAIATSQIFYVLRGQGVTRVADQEIAWTEGCCLALPADAIATHYAQTDSAFYWVHDAPLLRYLGVKPDRARFQPTLYRRQDLEATLAAIAADPQSRKANRLSVLLANQNFPQTRTITHTIWAMFGLLPPDVVQAPHRHQSVALDLILDCQPGCYTLVGTQLDERGQIRNPVRVDWRPYSVFVTPPGYWHAHYNESGQEAHLLPIQDAGLHTYLRTLDILFARHNGQISDEAA	not soluble
